{"source": "paper PMC6509496", "about": "“Crystal structure of the TreS:Pep2 complex, initiating α-glucan synthesis in the GlgE pathway of mycobacteria” (The Journal of Biological Chemistry, 2019)", "tested_on": "T1, Nc1ncnc2c1ncn2[C@@H]1O[C@H](COP(=O)(O)OP(=O)(O)OP(=O)(O)O)[C@@H](O)[C@H]1O", "T1 construct": "full length (441 residues), N-terminal His6 tag (pET28a), E. coli BL21(DE3); monomer", "test": "coupled pyruvate kinase / lactate dehydrogenase assay, NADH depletion", "assay_type": "biochemical, Mycolicibacterium smegmatis", "conditions": "20 mM maltose, 10 mM MgCl2, 50 mM sodium phosphate pH 7.5, 300 mM NaCl, 10% glycerol, no TreS", "text": "coupled pyruvate kinase / lactate dehydrogenase assay, NADH depletion on Msm Pep2 (M. smegmatis maltokinase, MsPep2)"}
{"substance": "Msm Pep2 (M. smegmatis maltokinase, MsPep2) (Mycolicibacterium smegmatis MC2 155)", "values": [{"measurement": "Km", "value": "76 ± 7", "unit": "µM"}]}
